The assay concerns the target LUC^N-MLO2^CT-LW/RR (A. thaliana). Put plainly: split reporter.

The substance “LUC^C-CAM2 (pAMPAT-LUC^C) (from UniProt P0DH97 1-149) (natural protein)” came in with a luciferase activity (median) of 4900 units/mm^2.

These data come from PMC9900802.
